According to publication PMC6555819, “Comprehensive study of nuclear receptor DNA binding provides a revised framework for understanding receptor specificity”:

target: THRa:RXRa (Homo sapiens, UniProt P10827;P19793 full;full); experiment: no ligand; PBM; 90 nM : 90 nM RXRa; PBS pH 7.4, 2% milk, 0.02% Triton X-100, 1 mM DTT, BSA, 0.4 mg/ml salmon testes DNA; conditions: tags: His kept;His cleaved; copies: 1;1; label: surface-attached array probe
Sequence (P10827 other isoform, or with tags, fused parts or gaps, chain 1 of 2): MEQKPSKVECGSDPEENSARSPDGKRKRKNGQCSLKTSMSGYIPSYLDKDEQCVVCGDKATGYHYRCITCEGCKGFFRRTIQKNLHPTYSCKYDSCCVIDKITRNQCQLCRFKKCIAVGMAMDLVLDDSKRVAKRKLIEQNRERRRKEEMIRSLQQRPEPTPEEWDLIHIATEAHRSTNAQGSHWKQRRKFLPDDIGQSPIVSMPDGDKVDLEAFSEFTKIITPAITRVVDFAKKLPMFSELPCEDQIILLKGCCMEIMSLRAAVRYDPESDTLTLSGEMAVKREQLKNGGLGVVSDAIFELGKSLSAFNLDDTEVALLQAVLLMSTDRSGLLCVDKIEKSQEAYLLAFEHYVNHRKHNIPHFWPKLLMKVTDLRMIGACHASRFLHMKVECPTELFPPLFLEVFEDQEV
Sequence (P19793 whole entry, chain 2 of 2): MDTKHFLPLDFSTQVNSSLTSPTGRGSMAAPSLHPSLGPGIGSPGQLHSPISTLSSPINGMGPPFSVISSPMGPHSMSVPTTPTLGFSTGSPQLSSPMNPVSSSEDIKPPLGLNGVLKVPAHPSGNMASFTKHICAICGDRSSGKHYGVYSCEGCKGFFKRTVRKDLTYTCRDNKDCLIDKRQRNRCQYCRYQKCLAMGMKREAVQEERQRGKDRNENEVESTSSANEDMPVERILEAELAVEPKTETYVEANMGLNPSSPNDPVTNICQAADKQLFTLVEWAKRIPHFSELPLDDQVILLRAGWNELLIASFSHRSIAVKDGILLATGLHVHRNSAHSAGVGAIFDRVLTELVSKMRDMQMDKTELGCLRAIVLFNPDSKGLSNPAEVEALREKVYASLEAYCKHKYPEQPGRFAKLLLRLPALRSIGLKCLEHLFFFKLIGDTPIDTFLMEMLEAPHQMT

Binder	binding signal
NRC3_wobSeed113_DR4_T8C_o1 (dsDNA) DNA 1: GCATATGCAGGTTAGCTGGGGTCATTCAGACTAGGCGCGATTGACAGCGTAGAATGAAGG DNA 2: CCTTCATTCTACGCTGTCAATCGCGCCTAGTCTGAATGACCCCAGCTAACCTGCATATGC	5.52 PBM z-score against 500 random probes
NRC3_wobSeed113_DR4_G29T_o1 (dsDNA) DNA 1: GCATATGTAGGTTAGCTGGGGTCATTCATACTAGGCGCGATTGACAGCGTAGAATGAAGG DNA 2: CCTTCATTCTACGCTGTCAATCGCGCCTAGTATGAATGACCCCAGCTAACCTACATATGC	5.52 PBM z-score against 500 random probes
NRC3_wobSeed114_DR4_G17C_o1 (dsDNA) DNA 1: GCAATACAGGGTCATCCTAGGCCAGAGTACGCACAGGCGATTGACAGCGTAGAATGAAGG DNA 2: CCTTCATTCTACGCTGTCAATCGCCTGTGCGTACTCTGGCCTAGGATGACCCTGTATTGC	5.26 PBM z-score against 500 random probes
NRC3_wobSeed114_DR4_T18G_o1 (dsDNA) DNA 1: GCAATACAGGGTCATCGGAGGCCAGAGTACGCACAGGCGATTGACAGCGTAGAATGAAGG DNA 2: CCTTCATTCTACGCTGTCAATCGCCTGTGCGTACTCTGGCCTCCGATGACCCTGTATTGC	5.17 PBM z-score against 500 random probes
NRC3_wobSeed118_DR4_G24A_o1 (dsDNA) DNA 1: GCTTACCAAGGTGAGCTGAGGTCATTGATCCAACTCGCGATTGACAGCGTAGAATGAAGG DNA 2: CCTTCATTCTACGCTGTCAATCGCGAGTTGGATCAATGACCTCAGCTCACCTTGGTAAGC	5.35 PBM z-score against 500 random probes
NRC3_wobSeed118_DR4_A8G_o1 (dsDNA) DNA 1: GCTTACCGAGGTGAGCTGAGGTCGTTGATCCAACTCGCGATTGACAGCGTAGAATGAAGG DNA 2: CCTTCATTCTACGCTGTCAATCGCGAGTTGGATCAACGACCTCAGCTCACCTCGGTAAGC	5.02 PBM z-score against 500 random probes
NRC3_wobSeed118_DR4_G15C_o1 (dsDNA) DNA 1: GCTTACCAAGGTGACCTGAGGTCGTTGATCCAACTCGCGATTGACAGCGTAGAATGAAGG DNA 2: CCTTCATTCTACGCTGTCAATCGCGAGTTGGATCAACGACCTCAGGTCACCTTGGTAAGC	5.05 PBM z-score against 500 random probes
NRC3_wobSeed121_DR5_T8C_o1 (dsDNA) DNA 1: GCCAAACCAGGTCACCGGAAGGTCAAAGTCCGCATGGCGATTGACAGCGTAGAATGAAGG DNA 2: CCTTCATTCTACGCTGTCAATCGCCATGCGGACTTTGACCTTCCGGTGACCTGGTTTGGC	4.95 PBM z-score against 500 random probes
NRC3_wobSeed120_DR4_A17T_o1 (dsDNA) DNA 1: GCCCGAGTAGGTTACGTGGGGGCATTCAGTGCGAATGCGATTGACAGCGTAGAATGAAGG DNA 2: CCTTCATTCTACGCTGTCAATCGCATTCGCACTGAATGCCCCCACGTAACCTACTCGGGC	4.87 PBM z-score against 500 random probes
NRC3_wobSeed117_DR4_C16T_o1 (dsDNA) DNA 1: GCCGTCAAAGTTCAATTAAGGTAACGTAAAGCACGCGCGATTGACAGCGTAGAATGAAGG DNA 2: CCTTCATTCTACGCTGTCAATCGCGCGTGCTTTACGTTACCTTAATTGAACTTTGACGGC	5.49 PBM z-score against 500 random probes
NRC3_wobSeed119_DR4_T21G_o1 (dsDNA) DNA 1: GCGGAACGAGGGCATTCGAGGTGATAGCATGGCGATGCGATTGACAGCGTAGAATGAAGG DNA 2: CCTTCATTCTACGCTGTCAATCGCATCGCCATGCTATCACCTCGAATGCCCTCGTTCCGC	5.22 PBM z-score against 500 random probes
NRC3_wobSeed101_DR4_C18G_o1 (dsDNA) DNA 1: GCCCTTACGGGTCACTCGAGGTTATAGCATCGGAGTGCGATTGACAGCGTAGAATGAAGG DNA 2: CCTTCATTCTACGCTGTCAATCGCACTCCGATGCTATAACCTCGAGTGACCCGTAAGGGC	5.34 PBM z-score against 500 random probes
NRC3_wobSeed102_DR4_C12T_o1 (dsDNA) DNA 1: GCCCTAGCAGGTCAATCTGGGTCACTCAAGGCTTGAGCGATTGACAGCGTAGAATGAAGG DNA 2: CCTTCATTCTACGCTGTCAATCGCTCAAGCCTTGAGTGACCCAGATTGACCTGCTAGGGC	5.18 PBM z-score against 500 random probes
NRC3_wobSeed130_DR5_G24C_o1 (dsDNA) DNA 1: GCCTCGAAAGGTCGTGCTCAGGTCAGTATACCAAACGCGATTGACAGCGTAGAATGAAGG DNA 2: CCTTCATTCTACGCTGTCAATCGCGTTTGGTATACTGACCTGAGCACGACCTTTCGAGGC	4.84 PBM z-score against 500 random probes
NRC3_wobSeed37_DR1_A25G_o1 (dsDNA) DNA 1: GCCGTCCAAGGTCAAAGGTCAGTGGAGAGATGACGGGCGATTGACAGCGTAGAATGAAGG DNA 2: CCTTCATTCTACGCTGTCAATCGCCCGTCATCTCTCCACTGACCTTTGACCTTGGACGGC	5.12 PBM z-score against 500 random probes
NRC3_wobSeed112_DR4_C22T_o1 (dsDNA) DNA 1: GCTAGCCTAGGTCAGATCGGGTCAGTATACGCTATAGCGATTGACAGCGTAGAATGAAGG DNA 2: CCTTCATTCTACGCTGTCAATCGCTATAGCGTATACTGACCCGATCTGACCTAGGCTAGC	5.04 PBM z-score against 500 random probes
NRC3_wobSeed112_DR4_T8G_o1 (dsDNA) DNA 1: GCTAGCCGAGGTCAGATCGGGCCAGTATACGCTATAGCGATTGACAGCGTAGAATGAAGG DNA 2: CCTTCATTCTACGCTGTCAATCGCTATAGCGTATACTGGCCCGATCTGACCTCGGCTAGC	4.92 PBM z-score against 500 random probes
NRC3_wobSeed73_DR3_A16T_o1 (dsDNA) DNA 1: GCCAAACTAGGTCACTGAGGTCAAAGTCCGTGCGTAGCGATTGACAGCGTAGAATGAAGG DNA 2: CCTTCATTCTACGCTGTCAATCGCTACGCACGGACTTTGACCTCAGTGACCTAGTTTGGC	5.07 PBM z-score against 500 random probes
NRC3_wobSeed103_DR4_A13T_o1 (dsDNA) DNA 1: GCGCATATAGGTTATACAAGGTGAAAGTCCGATTGTGCGATTGACAGCGTAGAATGAAGG DNA 2: CCTTCATTCTACGCTGTCAATCGCACAATCGGACTTTCACCTTGTATAACCTATATGCGC	5.07 PBM z-score against 500 random probes
NRC3_wobSeed106_DR4_G15A_o1 (dsDNA) DNA 1: GCCTCGAAAGGTCGATTGAGGTGAGTATACGGATAAGCGATTGACAGCGTAGAATGAAGG DNA 2: CCTTCATTCTACGCTGTCAATCGCTTATCCGTATACTCACCTCAATCGACCTTTCGAGGC	5.36 PBM z-score against 500 random probes
NRC3_wobSeed106_DR4_T4G_o1 (dsDNA) DNA 1: GCCGCGAAAGGTCGGTTGAGGTGAGTATACGGATAAGCGATTGACAGCGTAGAATGAAGG DNA 2: CCTTCATTCTACGCTGTCAATCGCTTATCCGTATACTCACCTCAACCGACCTTTCGCGGC	5.31 PBM z-score against 500 random probes
NRC3_wobSeed98_DR4_T8G_o1 (dsDNA) DNA 1: GCACTAGGTGGTCAGCTGAGGTCACACACAATTCGGGCGATTGACAGCGTAGAATGAAGG DNA 2: CCTTCATTCTACGCTGTCAATCGCCCGAATTGTGTGTGACCTCAGCTGACCACCTAGTGC	5.35 PBM z-score against 500 random probes
NRC3_wobSeed110_DR4_T19A_o1 (dsDNA) DNA 1: GCTCTGCTAGGTCAACGAAGGTCAGCTAATCTGCTAGCGATTGACAGCGTAGAATGAAGG DNA 2: CCTTCATTCTACGCTGTCAATCGCTAGCAGATTAGCTGACCTTCGTTGACCTAGCAGAGC	5.01 PBM z-score against 500 random probes
NRC3_wobSeed100_DR4_A17T_o1 (dsDNA) DNA 1: GCCCTACTGGGCCACGTAAGGTCATTGATTCAGTGAGCGATTGACAGCGTAGAATGAAGG DNA 2: CCTTCATTCTACGCTGTCAATCGCTCACTGAATCAATGACCTTACGTGGCCCAGTAGGGC	4.98 PBM z-score against 500 random probes
